Laboratory results: patent US8420311B2, “Method to block the infection by flaviviruses, molecules and uses” (Centro de Ingenieria Genetica y Biotecnologia, priority 2006, dated 2013)

B1: activated A2M: purified human A2M activated by incubation with methylamine (protein)
chain: SVSGKPQYMVLVPSLLHTETTEKGCVLLSYLNETVTVSASLESVRGNRSLFTDLEAENDVLHCVAFAVPKSSSNEEVMFLTVQVKGPTQEFKKRTTVMVKNEDSLVFVQTDKSIYKPGQTVKFRVVSMDENFHPLNELIPLVYIQDPKGNRIAQWQSFQLEGGLKQFSFPLSSEPFQGSYKVVVQKKSGGRTEHPFTVEEFVLPKFEVQVTVPKIITILEEEMNVSVCGLYTYGKPVPGHVTVSICRKYSDASDCHGEDSQAFCEKFSGQLNSHGCFYQQVKTKVFQLKRKEYEMKLHTEAQIQEEGTVVELTGRQSSEITRTITKLSFVKVDSHFRQGIPFFGQVRLVDGKGVPIPNKVIFIRGNEANYYSNATTDEHGLVQFSINTTNVMGTSLTVRVNYKDRSPCYGYQWVSEEHEEAHHTAYLVFSPSKSFVHLEPMSHELPCGHTQTVQAHYILNGGTLLGLKKLSFYYLIMAKGGIVRTGTHGLLVKQEDMKGHFSISIPVKSDIAPVARLLIYAVLPTGDVIGDSAKYDVENCLANKVDLSFSPSQSLPASHAHLRVTAAPQSVCALRAVDQSVLLMKPDAELSASSVYNLLPEKDLTGFPGPLNDQDDEDCINRHNVYINGITYTPVSSTNEKDMYSFLEDMGLKAFTNSKIRKPKMCPQLQQYEMHGPEGLRVGFYESDVMGRGHARLVHVEEPHTETVRKYFPETWIWDLVVVNSAGVAEVGVTVPDTITEWKAGAFCLSEDAGLGISSTASLRAFQPFFVELTMPYSVIRGEAFTLKATVLNYLPKCIRVSVQLEASPAFLAVPVEKEQAPHCICANGRQTVSWAVTPKSLGNVNFTVSAEALESQELCGTEVPSVPEHGRKDTVIKPLLVEPEGLEKETTFNSLLCPSGGEVSEELSLKLPPNVVEESARASVSVLGDILGSAMQNTQNLLQMPYGCGEQNMVLFAPNIYVLDYLNETQQLTPEVKSKAIGYLNTGYQRQLNYKHYDGSYSTFGERYGRNQGNTWLTAFVLKTFAQARAYIFIDEAHITQALIWLSQRQKDNGCFRSSGSLLNNAIKGGVEDEVTLSAYITIALLEIPLTVTHPVVRNALFCLESAWKTAQEGDHGSHVYTKALLAYAFALAGNQDKRKEVLKSLNEEAVKKDNSVHWERPQKPKAPVGHFYEPQAPSAEVEMTSYVLLAYLTAQPAPTSEDLTSATNIVKWITKQQNAQGGFSSTQDTVVALHALSKYGAATFTRTGKAAQVTIQSSGTFSSKFQVDNNNRLLLQQVSLPELPGEYSMKVTGEGCVYLQTSLKYNILPEKEEFPFALGVQTLPQTCDEPKAHTSFQISLSVSYTGSRSASNMAIVDVKMVSGFIPLKPTVKMLERSNHVSRTEVSSNHVLIYLDKVSNQTLSLFFTVLQDVPVRDLKPAIVKVYDYYETDEFAIAEYNAPCSKDLGNA

Tests used:
[1] = system: DV2; type: cell-based, dengue virus; conditions: protein 25 μg/mL pre-incubated with virus 1 hour at 25° C.
Procedure: (§1) FIG. 21. Chromatographic profile of the purification of the A2MR using affinity chormatography with immobilized A2M (A) and SDS-PAGE analysis of fractions eluted using a 5-15% gradient gel (B). Effect of the pre-incubation of chromatography fractions with DV2 on the infection of Vero cells (C). The plaque reduction neutralization assay was performed as described in FIG. 20. (D) Mice protection assay using the DV-induced encephalitis model.
To this aim, a viral preparation containing 100 infective viral particles was pre-incubated with the different fractions at a protein concentration of 25 μg/mL for 1 hour at 25° C. Next, the virus was added to Vero cell monolayers and infection was allowed to occur for 45 minutes at 37° C. Afterwards virus/protein mixtures were removed, the cells were washed with fresh medium and finally the cells were incubated for 5 days at 37° C. in high density medium.

[2] = system: DV2; assay: Mice protection assay using the DV-induced encephalitis model; type: in vivo, Balb/C mice; conditions: intra-cranial lethal dosis of DV2 (FIG. 21D)
Procedure: as §1
FIG. 22. Mice protection assay using the DV-induced encephalitis model. PepNR GAGs binding: peptide formed by a sequence fragment of binding to glycosaminoglycans and a non-related sequence fragment.
Groups of 12 adult Balb/C mice (20 g average body weight) were anesthesized, inoculated by intracranial injection with lethal dosis of DV2 and observed daily for 21 days. The mixtures of peptides with the virus were inoculated in the same way. The volume of the sample inoculated was 20 μL.
The mouse model of dengue encephalitis was used to investigate the potential of the peptide HDIII3CL to protect against DV2 infection. A group of 12 mice were inoculated with lethal dosis of DV2 in combination with 15 μg and 1.5 μg of HDIII3CL peptide. As negative control was used a peptide composed by fragment of 14 aminoacids of a sequence with known heparin binding activity followed by 16 aminoacids of a sequence non-related to the envelope protein of DV. […]

[3] = target: T1, DIIIE2J (DIII from protein E of DV2) (Dengue virus type 2, UniProt P07564); assay: Direct binding between DIIIE2J and A2M measured by Biacore; set-up: species or system DV2 strain Jamaica 1409; conditions: restated in example 10
T1 construct: made in house; host or cells: Escherichia coli BL21(DE3)
T1 sequence (P07564 568-687, looked up, natural form): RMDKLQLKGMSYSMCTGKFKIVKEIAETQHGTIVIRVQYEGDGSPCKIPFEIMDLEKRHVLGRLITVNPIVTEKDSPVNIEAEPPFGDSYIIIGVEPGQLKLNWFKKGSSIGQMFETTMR
Procedure: FIG. 6. Direct binding between DIIIE2J and A2M, measured by Biacore. Response curves obtained during and after the injection of (B) Monoclonal antibodies against DV serotype 2 (3H5) and against all FV (4G2); (C) Polyclonal mouse antibody preparations obtained by immunization with DV1 and DV2, including pre-immune sera and (D) A2M dilutions, at concentrations from 0.3 μMol/L to 3 μMol/L. The run was performed on PBS pH 7.4 at 25° C. The different A2M dilutions were loaded at a flow of 5 μL/min for 20 min. The response is represented in resonance units (RU) corrected for unspecific binding using the response from the channel without immobilized protein (less than 5% of the specific signal).
A cm5 chip (Biacore, Sweden) was used for the covalent immobilization of the DIIIE2J and LRP1 proteins. The immobilization was carried out at 25° C., with a flow of 5 μL/min and using HBS (Biacore, Sweden) as running buffer. The surface of the chip was activated by loading 35 μL of 0.2 Mol/L […] (EDC) and 0.05 Mol/L N-hydroxysuccinimide (NHS). Afterwards the proteins, dissolved in 10 mM sodium acetate buffer pH 4.5, were loaded into the system. At the end of the immobilization, 35 μL of 1 M ethanolamine pH 8 were loaded into the system in order to block any remaining free activated groups. The channel to be used as a negative control in each case received only the activating injections with the EDC:NHS solution and the blocking with ethanolamine, employing the same flow and injection volume. The results were analyzed using the BIAevaluation ver. 4.1 software application package (Biacore, Sweden).
In order to estimate the strength of the interaction between DIIIE2J and human A2M, 1600 RU of DIIIE2J were covalently immobilized on a CM5 chip (channel 1, FIG. 6A) (Biacore, Sweden), following the procedure described in the Materials and Methods section. […]

[4] = system: Vero cells; assay: Binding of fluoresceinated proteins to the surface of Vero cells (flow cytometry); type: cell-based, monkey; conditions: fluoresceinated proteins (FIG. 7A)
Procedure: FIG. 7. Inhibition of the binding of DIIIE2J to Vero cells by A2M and RAPR13. The pre-fixed cells were incubated with the fluoresceinated proteins, and the intensity of the fluorescence due to binding of the fluoresceinated ligands to the cells was measured by flow cytometry. Each experimental point represents data gathered from a minimum of 20 000 cells. (A) Binding of A2M and RAPR13 to the cells. The depicted values correspond to the average of the intensity of the fluorescence at each point of the assay minus the fluorescence obtained with untreated cells. (B) and (C) The cells were incubated with fluoresceinated DIIIE2J in the presence or absence of the non-fluoresceinated ligands, using the molar ratio indicated on each case. The % binding was calculated from the ratio of the average intensity of the fluorescence of the cells incubated with the mixture of fluoresceinated DIIIE2J plus the proteins, between that of the cells incubated only with fluoresceinated DIIIE2J.
In the case of cultured Vero cells, they were detached from the surface of the culture flask without using proteases, by incubation with PBS pH 7.4, 5 mM EDTA for 10 min. at 37° C., gently tapping the outside of the flask.
The cells, collected and washed as described above, were incubated in fixing solution (PBS pH 7.4, 2% paraformaldehyde, 0.01% NaN3, 1 mM CaCl2, 1 mM MgCl2 for 30 min at 4° C., and the fixing solution was then eliminated by centrifugation at 350×g for 5 min a 4° C. […] The intensity of the fluorescence was quantified by flow cytometry on a PAS III cytometer (Partec, Germany). The values for each experimental point were calculated from measurements on a minimum of 20 000 cells.
Given that this cell line is derived from monkey kidney cells and that the ligands for the A2MR receptor used in the assays are of human origin, a preliminary and necessary step was the corroboration of the binding of the RAPR13 and A2M MeNH2 proteins to Vero cells. With this aim, these proteins were fluoresceinated, and their binding to the surface of Vero cells was measured using flow cytometry. […]

[5] = system: DV; assay: Inhibition of the infection of Vero cells with DV by pre-incubation of the virus with A2M; type: cell-based, dengue virus; conditions: stated to correspond with the affinity constant for DIIIE2J
Procedure: (§2) FIG. 20. Inhibition of the infection of Vero cells with DV by pre-incubation with A2M. Viral preparations were incubated 1 h at 25° C. (A and C) or the indicated time (B) with the proteins i. e. activated A2M (A2Mact), non-activated A2M (A2M no act) and a non-related protein (NR). The mixtures of the proteins with the virus were added to monolayers of Vero cells and incubated for 1 h at 37° C. The cell monolayers were washed to eliminate non-bound virus. Next, medium MEM supplemented with non-essential amino acids and 1% FBS, 1% CMC was added and the cells were incubated for 5 days at 37° C. in a CO2 incubator. To visualize the viral plaques, Vero cells were stained using Naphtol Blue Black. All experimental points were performed on duplicates.
To obtain further evidences of the interaction of DV with A2M, the two variants of the protein i.e. activated and non-activated were used in assays of inhibition of infection of Vero cells. The viral preparation was incubated with solutions of activated A2M of higher concentrations than the physiological concentrations reached by this variant of the protein. Solutions of equimolar concentration of non-activated A2M and a non-related protein were used as negative controls. […]

[6] = system: serotype 1 of DV; assay: as above; type: cell-based, dengue virus; conditions: FIG. 20C
Procedure: as §2

[7] = system: serotype 3 of DV; assay: as above; type: cell-based, dengue virus; conditions: FIG. 20C
Procedure: as §2

| Molecule | neutralization of the infection of DV2 [1] | protective effect in mice encephalitis model [2] | Kd [3] | binding to the surface of Vero cells [4] | IC50 [5] | infection of Vero cells by serotype 1 of DV [6] | infection of Vero cells by serotype 3 of DV [7] |
| --- | --- | --- | --- | --- | --- | --- | --- |
| Purified A2MR: α-chain of the A2MR receptor purified from human plasma by affinity chromatography on immobilized MeNH2_A2M | potent neutralization | significative protective effect |  |  |  |  |  |
| B1 |  |  | 100 nM | concentration-dependant and saturable binding behavior | ~100 nM | inhibited infection | inhibited infection |
